# B1: TPR t1 (parent)
# chain: GACCAAUCUGCCCUCAGAGCUCGAGAACAUCUUCGGAUGCAGAGGAGGCAGGCUUCGGUGGCGCGAUAGCGCCAACGUCCUCAACCUCCAAUGCAUCCCACCACAUGAUGAUGCCUGAAGAGCCUUGGUUUUUUG
# Variants of: B1
# Assay: polymerase ribozyme fitness, log enrichment relative to wild type (log ratio); higher = more active; in vitro selection for triplet polymerase activity
# Procedure, shortened: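 Only genotypes with ≥10 input reads and ≥1 read per output were kept after Illumina sequencing of input and output libraries. These libraries were PCR-built, transcribed mutants of each subunit of a heterodimeric triplet polymerase ribozyme, each put through one triplicate in vitro selection round with frozen incubation at −7 °C, gel excision of extended constructs, streptavidin-bead capture and RT-PCR. Fitness is a logarithmic ratio of genotype enrichment to wild-type enrichment, from inverse-variance-weighted replicate averages, with the logarithm in base 2.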
row,Variant,polymerase ribozyme fitness (log ratio)
1,G48U U59A G60U C79U U92G G122A C123A,-5.96
2,G52A G71C A95C G113C,-6.98
3,G19A C20A U59C U96A,-5.13
4,C28U A29G C72U U112A C124U,-7.83
5,G48U C53U,-2.55
6,G61C A75U A84C A95C,-1.21
7,C49A C89A,-1.76
8,C8U G44C G63A,-0.547
9,C8U G44A G60U A121C G122U,-1.02
10,C124G,1.59
11,U7C G58A C70U U78C U116C U131G,-1.13
12,C8A U96C U116G,-0.0172
13,C72U C101A C115A C123A,-3.06
14,G120A U132A,1.97
15,U87A G93C,-1.3
16,A18U C79A G93A U116A C124U,-6.2
17,C15U A18U C31A G39U U54A C72U C114U C115G,-6.25
18,C82U U96C C98U C115A G117C,-6.13
19,G36A U125G,-1.83
20,U7C C40U C98A A121C,-3.62
21,C70U U96C C97U C104A,-5.19
22,A29G C97U C101A A103U G120A U133G,-7
23,G42U A75G G93C,-2.29
24,C70U C115U C123G,-1.96

row,Variant,polymerase ribozyme fitness (log ratio)
1,C20U C70U G113U G120U,-3.51
2,C28A C85U A121U,-3.69
3,U33A G52U G61C C115A,-4.91
4,G39C C97U G120C,0.357
5,U38G C89A,-2.14
6,G47C,-1.82
7,G17U G48U C56A U78C U87G U112A,-3.06
8,G69C A84C U125A,-2.42
9,C31G G61U,-6.02
10,G110C C114U,-4.33
11,A91G G113A,-1.95
12,C12G C13A G36A G47C C86U C114G,-6.13
13,A29U A84G U87G,-2.37
14,U78G C123A,-1.06
15,G71U C94G G113C U126G,-6.21
16,U21G A37G G61A G135U,-2.33
17,A50U G69U C80G C98U G113A,-3.31
18,C15U G60A A91C,-2.6
19,G110A U125A,-2.43
20,C80U U81A C89U U126G,-3.21
21,A66U U130A,-1.42
22,C80A A95G,-3.38
23,G51U C56U,-2.11
24,C8G G45A C56U C94A C101A,-1.64

row,Variant,polymerase ribozyme fitness (log ratio)
1,A2G C40A C89U,-1.58
2,A5C C13U C79A C114A,-2.82
3,C97U C124G,1.72
4,A16G C53G G58A A91C A119U,-4.1
5,C13U G71A U78G U87A U131A,-1.51
6,A83U A100C C114U,-3.1
7,G48U U131C,-0.204
8,C72U C88U C124A,0.938
9,G52C C64U C123U,-0.169
10,C88G A91U U112A,-1.38
11,G47C G63U A90U,-5.15
12,G36U G63A,-1.69
13,C56G G117A,-2.32
14,C8U A41U C97U,-0.942
15,C56A C82U C104U G122A U125A,-1.2
16,C40G G48C G93C,0.0171
17,C104U G128C,-1.84
18,U7G C11G U33A A90G C101A,-6.24
19,U7C C13G,0.00167
20,C13A A18C C94G C114U,-5.11
21,A6G U9C,0.178
22,A6C U9G G77C A105G U126A,-4.13
23,U21C U54C G63C C80A A105C C115U A118C,-7.47
24,G39A G69U C79A G127A,-2.91

row,Variant,polymerase ribozyme fitness (log ratio)
1,G71A C72U,-1.32
2,C20A G57A C72A U87A,-4.5
3,C12U A121G,1.82
4,G51A C123G,-0.157
5,C15G G117A,-1.61
6,C12G C15A G39U A41G C49G,-4.44
7,G51U U54A C89U U129C,-2.82
8,C72U G113U,-2.87
9,A90G C102A G117A,-5.32
10,C8A C28G C53A U106G,-3.51
11,A41U G128A,-2.79
12,C28G G63U C70G C88A U106A U125G G128C,-4.76
13,C13U A68G C73U U112G,-3.26
14,G48C G60U A105C U116C,-5.8
15,C8A A83G C104U U129A,-2.16
16,C49A G117C,-3.75
17,A41G C101A C115G,-2.97
18,C56U U126A,-1.39
19,C86G A103G,-5.43
20,G44U C72A G127C U131C,-3.12
21,G44U C56A G127C,-2.27
22,A26U G52U,-4.03
23,C49G G71A U112A,-1.11
24,C88G U116G,-3.52

row,Variant,polymerase ribozyme fitness (log ratio)
1,C40A G110A U116A,-5.12
2,U87A U92A,-2.55
3,U59G G113A A121U C123A,-1.97
4,A26C C72U,-5.89
5,G52A G61A,-0.531
6,U78C C104A,-1.61
7,A26U C34U U59C C85A G113A G127U,-6.04
8,G10A C34U G77A,-5.24
9,C20A G39U G42A U55C C99U G113C G122A C123U,-6.79
10,U9C G69A,-2.17
11,G48U U106C G117C,-5.18
12,A26U G61U,-3.08
13,A6U A18U A74C C85G C115A U129G,-4.74
14,U106A G117U,-2.19
15,G10U C56G A111C,-0.962
16,C70G C82G C124A U131G,-3.38
17,A27G U33G G63C G120A C123U,-5.79
18,U9C G69U C72G,-1.2
19,C8U G110A,0.177
20,C86A G107U A121U U132C,-3.32
21,G47C U112A,-0.857
22,A29U G44A G110A U125A,-3.17
23,U59G G113U U126A,-3.87
24,C11U C40U G120A,-0.013

row,Variant,polymerase ribozyme fitness (log ratio)
1,C40U G57A C85A U112A G122C C123A,-1.77
2,G10U A41C A91U G120C U129C,-1.99
3,A27U C53G,-2.71
4,G69U G122A,0.377
5,C64U U92C,-1.23
6,G10U G23A U30G U32A G35U G51A C70G,-6.22
7,C12G G69U,0.711
8,C86G G120C,0.661
9,A24U C72G A95C G110U,-7.4
10,C72A C104G,-7.39
11,C12A C15A C73U C82U,-3.66
12,C22U G60C,-4.82
13,G10U G17U C56U U109A G110C A118G C123A,-6.9
14,G113A C124U,-0.971
15,C13U A46G A50U C53U U129C,-2.72
16,C56G G69A,-2.86
17,U9A C11U A66C G117U,-5.04
18,C40A C80A G93U C101A,-3.95
19,C11U G42U,-2.17
20,G48A C56G G93U,-2.28
21,C20U G117A,-2.72
22,C62U G113C,-2.79
23,C3U C56U G77C,-1.42
24,G71U C99G,-8.12

row,Variant,polymerase ribozyme fitness (log ratio)
1,G39C A91C,-1.16
2,C20A C72G A75U C85A G110U,-5.51
3,A5U G113A,-1.04
4,C40U G44A,-0.755
5,G10U A27C G44C G69U C88G G93A C114A,-6.93
6,C12A A37G,-0.967
7,C12U C72G A103G C124A,-5.75
8,C4G C11A G71A C89U A111U U112A C123A G127C,-2.11
9,C53A C98U U112G,-3.36
10,G44A G58U U81A,-1.79
11,C3U G63C G110A,-2.26
12,C62A U87A A90U A111C,-5.52
13,C101A C102A A119U U130A,-5.43
14,G47U U55A C70U C94G,-4.62
15,C15A G48C G52C,-4.44
16,U33A G42A G52U G61A A121U,-5.46
17,G39A G42U C80U C124U,-1.59
18,A18U G113U,-4.9
19,C56A U130C,-0.155
20,C8U A27G G42U C56A A74C C89U A111C,-5.47
21,A5G C12G G71C A121G,0.0981
22,C15U G58A C79U,-2.08
23,C28A G39U C64U C104A A119G,-5.82
